{"source": "paper PMC2905227", "about": "(Journal of the American Chemical Society, 2010)", "binders": {"B1": {"name": "wild-type E. coli ribonucleotide reductase β2 subunit (enzyme, UniProt P69924 1-376, looked up)", "chain": "MAYTTFSQTKNDQLKEPMFFGQPVNVARYDQQKYDIFEKLIEKQLSFFWRPEEVDVSRDRIDYQALPEHEKHIFISNLKYQTLLDSIQGRSPNVALLPLISIPELETWVETWAFSETIHSRSYTHIIRNIVNDPSVVFDDIVTNEQIQKRAEGISSYYDELIEMTSYWHLLGEGTHTVNGKTVTVSLRELKKKLYLCLMSVNALEAIRFYVSFACSFAFAERELMEGNAKIIRLIARDEALHLTGTQHMLNLLRSGADDPEMAEIAEECKQECYDLFVQAAQQEKDWADYLFRDGSMIGLNKDILCQYVEYITNIRMQAVGLDLPFQTRSNPIPWINTWLVSDNVQVAPQEVEVSSYLVGQIDSEVDTDDLSNFQL", "modifications": "tyrosyl radical at Y122 (1-1.2 radicals per β2), diferric cluster"}}, "assay_in_all_cases": "competitive inhibition of enzyme activity", "key": {"[1]": {"molecular_target": "T1, wild-type E. coli ribonucleotide reductase α2 subunit (E. coli, UniProt P00452 1-761)", "T1 sequence (looked up)": "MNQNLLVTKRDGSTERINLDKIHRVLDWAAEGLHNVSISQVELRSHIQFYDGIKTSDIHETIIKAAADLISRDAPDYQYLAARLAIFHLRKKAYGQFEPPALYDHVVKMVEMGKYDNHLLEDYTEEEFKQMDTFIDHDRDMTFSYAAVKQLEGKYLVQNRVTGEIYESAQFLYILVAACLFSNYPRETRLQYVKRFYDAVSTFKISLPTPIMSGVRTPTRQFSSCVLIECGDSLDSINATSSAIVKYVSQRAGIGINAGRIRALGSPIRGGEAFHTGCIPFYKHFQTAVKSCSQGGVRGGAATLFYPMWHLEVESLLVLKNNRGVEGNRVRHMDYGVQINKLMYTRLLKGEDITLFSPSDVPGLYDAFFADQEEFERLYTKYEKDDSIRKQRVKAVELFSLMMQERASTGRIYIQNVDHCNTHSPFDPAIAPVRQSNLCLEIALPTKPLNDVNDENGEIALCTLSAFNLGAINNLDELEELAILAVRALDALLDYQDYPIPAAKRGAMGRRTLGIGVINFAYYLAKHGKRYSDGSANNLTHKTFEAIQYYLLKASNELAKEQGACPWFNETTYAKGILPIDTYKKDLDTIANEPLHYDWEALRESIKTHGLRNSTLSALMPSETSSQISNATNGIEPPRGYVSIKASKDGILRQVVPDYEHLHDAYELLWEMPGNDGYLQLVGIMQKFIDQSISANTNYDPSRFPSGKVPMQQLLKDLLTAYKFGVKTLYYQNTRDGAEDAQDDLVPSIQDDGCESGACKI"}, "[2]": {"molecular_target": "T2, [NO2Y731]-α2(Y730F) (E. coli, UniProt P00452 1-761, Y730F, 3-nitrotyrosine (NO2Y) in place of Y731)", "T2 sequence (looked up)": "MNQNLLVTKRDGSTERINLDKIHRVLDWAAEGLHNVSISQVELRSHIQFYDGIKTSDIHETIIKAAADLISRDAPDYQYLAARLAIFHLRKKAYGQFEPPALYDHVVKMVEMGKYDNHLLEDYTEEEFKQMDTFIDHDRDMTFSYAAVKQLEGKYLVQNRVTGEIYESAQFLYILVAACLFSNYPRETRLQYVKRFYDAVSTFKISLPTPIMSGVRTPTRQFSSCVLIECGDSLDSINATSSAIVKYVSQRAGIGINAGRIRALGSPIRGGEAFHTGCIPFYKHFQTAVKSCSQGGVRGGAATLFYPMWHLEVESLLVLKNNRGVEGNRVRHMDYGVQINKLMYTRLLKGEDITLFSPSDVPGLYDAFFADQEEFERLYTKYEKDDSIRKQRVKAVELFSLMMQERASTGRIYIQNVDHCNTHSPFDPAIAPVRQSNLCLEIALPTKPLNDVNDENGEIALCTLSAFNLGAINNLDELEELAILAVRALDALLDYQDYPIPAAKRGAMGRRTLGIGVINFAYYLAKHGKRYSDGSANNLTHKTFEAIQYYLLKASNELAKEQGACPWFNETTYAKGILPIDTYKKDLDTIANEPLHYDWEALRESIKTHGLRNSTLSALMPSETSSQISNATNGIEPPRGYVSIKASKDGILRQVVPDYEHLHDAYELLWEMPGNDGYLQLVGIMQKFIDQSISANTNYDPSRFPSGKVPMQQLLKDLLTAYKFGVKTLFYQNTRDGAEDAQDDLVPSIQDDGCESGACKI"}, "[3]": {"molecular_target": "T3, [NO2Y730]-α2(Y731F) (E. coli, UniProt P00452 1-761, Y731F, 3-nitrotyrosine (NO2Y) in place of Y730)", "T3 sequence (looked up)": "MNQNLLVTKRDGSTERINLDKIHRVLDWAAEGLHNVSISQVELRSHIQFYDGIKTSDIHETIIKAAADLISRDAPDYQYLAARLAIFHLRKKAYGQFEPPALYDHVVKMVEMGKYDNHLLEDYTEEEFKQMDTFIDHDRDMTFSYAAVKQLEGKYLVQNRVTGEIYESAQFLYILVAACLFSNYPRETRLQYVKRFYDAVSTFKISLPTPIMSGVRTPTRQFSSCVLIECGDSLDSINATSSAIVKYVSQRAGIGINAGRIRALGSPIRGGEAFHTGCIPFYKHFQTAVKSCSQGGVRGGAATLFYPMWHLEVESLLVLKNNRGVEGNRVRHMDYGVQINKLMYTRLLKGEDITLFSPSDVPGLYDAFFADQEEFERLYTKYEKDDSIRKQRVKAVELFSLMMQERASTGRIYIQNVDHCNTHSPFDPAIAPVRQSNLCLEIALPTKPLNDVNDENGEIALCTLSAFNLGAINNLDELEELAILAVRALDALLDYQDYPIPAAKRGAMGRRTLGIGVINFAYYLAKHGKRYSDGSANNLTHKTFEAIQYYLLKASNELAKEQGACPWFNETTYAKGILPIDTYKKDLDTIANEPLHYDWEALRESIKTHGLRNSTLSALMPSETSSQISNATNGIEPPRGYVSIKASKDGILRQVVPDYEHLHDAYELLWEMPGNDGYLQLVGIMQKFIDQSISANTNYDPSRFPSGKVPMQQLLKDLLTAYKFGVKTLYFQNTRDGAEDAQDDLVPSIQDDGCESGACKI"}}}
{"binder": "B1", "values": [{"measurement": "binding result", "setting": "[1]", "value": "binds"}, {"measurement": "Kd", "setting": "[2]", "value": "500 ± 40", "unit": "nM"}, {"measurement": "Kd", "setting": "[3]", "value": "1450 ± 140", "unit": "nM"}]}
